# Experimental data published in patent US20180155451A1 (published 2018).
# Experiments:
# FcγRIIIa F = biological target: T1, FcγRIIIa F (human, UniProt P08637 17-208); assay: SPR (Biacore), KD
# T1 construct: extracellular domain; also called FcgRIIIa F; FcgRIIIaF; not shown: His tag attached to the C terminus
# FcγRIIIa V = biological target: T2, FcγRIIIa V (human, UniProt P08637 17-208); assay: SPR (Biacore), KD
# T2 construct: extracellular domain; also called FcgRIIIa V; FcgRIIIaV; not shown: His tag attached to the C terminus
# FcγRIa = biological target: T3, FcγRIa (human, UniProt P12314 16-292); assay: SPR (Biacore4000), kinetic analysis
# T3 construct: extracellular domain; also called FcgRIa; FcgRI; not shown: His tag attached to the C terminus
# Method: The variants described above were assessed for their binding to FcγR according to the method described in Reference Example 8.
# Analysis of interaction between obj ective antibody and the FcγR was carried out using Biacore T100 (GE Healthcare), Biacore T200, Biacore A100, and Biacore 4000. HBS-EP+ (GE Healthcare) was used as the running buffer, and the measurement temperature was set to 25° C. Chips produced by immobilizing the antigen peptide by the amine coupling method to a Series S sensor Chip CM5 (GE Healthcare), chips produced by allowing preliminarily biotinylated antigen peptides to interact with and immobilize onto a Series S Sensor Chip SA (certified) (GE Healthcare), chips produced by immobilizing Protein L (ACTIGEN, BioVision) to Series S Sencor Chip CM5 (GE Healthcare), or chips produced by immobilizing Protein A/G (Thermo Scientific) to Series S Sencor Chip CM5 (GE Healthcare) were used. Antibodies of interest were captured onto these chips, and allowed to interact to each FcγR diluted with running buffer. To regenerate and repeatedly use the chip, the antibodies captured onto the chip were washed off by reacting 10 mM glycine-HCl, pH 1.5.
# FcγRIIIa [1] = biological target: T4, FcγRIIIa (human, UniProt P08637 17-208); assay: SPR (Biacore); KD of GpH7-TA7/GpH7-B78/GpL16-k0 for FcγRIIIa divided by the KD of this antibody
# T4 construct: extracellular domain; The protein is soluble, His-tagged, and was expressed in FreeStyle293 cells; also called FcgRIIIa; CD16A; not shown: His tag attached to the C terminus
# Method: (§1) Then, K334G was also assessed in the same manner. GpH7-TA40 (SEQ ID NO: 47) resulting from the introduction of K334G into GpH7-TA7 was constructed, and expressed and prepared in combination with GpH7-B78 according to the method described in Reference Example 1. Furthermore, GpH7-TA50 (SEQ ID NO: 48) resulting from the introduction of K334G into GpH7-B78 was constructed, and expressed and prepared in combination with GpH7-TA7 according to the method described in Reference Example 1. To assess the effect of combinations with K334G, the prepared antibodies were compared for the FcγRIIIa binding according to the method described in Reference Example 2 (Table 18).
# Analysis of interaction between objective antibody and the FcγR was carried out using Biacore T100 (GE Healthcare). HBS-EP+ (GE Healthcare) was used as the running buffer, and the measurement temperature was set to 25° C. Chips produced by immobilizing the antigen peptide by the amine coupling method to a Series S Sencor Chip CM5 (GE Healthcare), or alternatively, chips produced by allowing preliminarily biotinylated antigen peptides to interact with and immobilize onto a Series S Sensor Chip SA (certified) (GE Healthcare) were used. Antibodies of interest were captured onto an antigen peptide-immobilized chip, and allowed to interact to each FcγR diluted with running buffer. […]
# FcγRIIIa [2] = biological target: T4, FcγRIIIa; assay: SPR (Biacore T100); antibody captured on an antigen peptide chip, FcγRIIIa as analyte; 1:1 Langmuir kinetic fit
# Method: as §1
# Analysis of interaction between objective antibody and the FcγR was carried out using Biacore T100 (GE Healthcare). HBS-EP+ (GE Healthcare) was used as the running buffer, and the measurement temperature was set to 25° C. Chips produced by immobilizing the antigen peptide by the amine coupling method to a Series S Sencor Chip CM5 (GE Healthcare), or alternatively, chips produced by allowing preliminarily biotinylated antigen peptides to interact with and immobilize onto a Series S Sensor Chip SA (certified) (GE Healthcare) were used. Antibodies of interest were captured onto an antigen peptide-immobilized chip, and allowed to interact to each FcγR diluted with running buffer. To regenerate and repeatedly use the chip, the antibodies captured on the chip were washed off by reacting 10 mM glycine-HCl, pH 1.5.
# T4 sequence (P08637 17-208): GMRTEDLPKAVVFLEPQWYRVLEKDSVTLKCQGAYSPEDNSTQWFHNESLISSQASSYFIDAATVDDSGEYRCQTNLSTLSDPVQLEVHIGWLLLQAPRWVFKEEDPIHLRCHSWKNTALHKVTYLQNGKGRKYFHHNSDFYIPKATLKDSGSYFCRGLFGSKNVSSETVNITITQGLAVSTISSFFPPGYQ
# T3 sequence (P12314 16-292): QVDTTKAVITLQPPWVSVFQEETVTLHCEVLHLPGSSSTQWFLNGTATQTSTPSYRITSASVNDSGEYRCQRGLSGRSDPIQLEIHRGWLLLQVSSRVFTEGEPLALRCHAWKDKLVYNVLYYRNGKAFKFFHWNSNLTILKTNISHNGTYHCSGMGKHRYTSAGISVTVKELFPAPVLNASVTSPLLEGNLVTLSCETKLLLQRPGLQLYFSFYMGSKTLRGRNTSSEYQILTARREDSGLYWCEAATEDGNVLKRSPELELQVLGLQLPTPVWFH
# T1 sequence (P08637 17-208): as the sequence (P08637 17-208) above
# T2 sequence (P08637 17-208 F176V limits assumed): as the sequence (P08637 17-208) above, with F160V counted along it
Binder,fold enhancement of binding against the variant before introduction of I332E and Y235N (FcγRIIIa F) [fold],fold enhancement of binding against the variant before introduction of I332E and Y235N (FcγRIIIa V) [fold],koff (FcγRIa) [s⁻¹],KD ratio (FcγRIIIa [1]),Kd (FcγRIIIa [2]) [nM]
"GpH7-TA7/GpH7-TA50/GpL16-k0 (antibody, human IgG1, kappa, Heterodimerized anti-glypican-3 IgG1 antibody; also called TA7/TA50) heavy 1: QVQLVQSGAEVKKPGASVTVSCKASGYTFTDYEMHWIRQPPGEGLEWIGAIDPKTGDTAYSESFQDRVTLTADKSTSTAYMELSSLTSEDTAVYYCTRFYSYTYWGQGTLVTVSSASTKGPSVFPLAPSSKSTSGGTAALGCLVKDYFPEPVTVSWNSGALTSGVHTFPAVLQSSGLYSLSSVVTVPSSSLGTQTYICNVNHKPSNTKVDKKVEPKSCDKTHTCPPCPAPEYLWGPSVFLFPPKPKDTLMISRTPEVTCVVVDVSHEDPEVKFNWYVDGVEVHNAKTKPREEQYNATYRVVSVLTVLHQDWLNGKEYKCKVSNKALPAPIEKTISKAKGQPREPQVYTLPPSRKELTKNQVSLTCLVKGFYPSDIAVEWESNGQPENNYKTTPPVLDSDGSFFLYSKLTVDKSRWQQGNVFSCSVMHEALHNRYTQKSLSLSP heavy 2: QVQLVQSGAEVKKPGASVTVSCKASGYTFTDYEMHWIRQPPGEGLEWIGAIDPKTGDTAYSESFQDRVTLTADKSTSTAYMELSSLTSEDTAVYYCTRFYSYTYWGQGTLVTVSSASTKGPSVFPLAPSSKSTSGGTAALGCLVKDYFPEPVTVSWNSGALTSGVHTFPAVLQSSGLYSLSSVVTVPSSSLGTQTYICNVNHKPSNTKVDKKVEPKSCDKTHTCPPCPAPELLGGPDVFLFPPKPKDTLMISRTPEVTCVVVDVSHEDPEVKFNWYVDGVEVHNAKTKPREEQYNSTYRVVSVLTVLHQDWLNGKEYKCKVSNKALPLPEEGTISKAKGQPREPQVYTLPPSRDELTKNQVSLTCLVKGFYPSDIAVEWESNGQPENNYKTTPPVLDSDGSFFLYSKLTVDKSRWQQGNVFSCSVMHEALHNHYTQESLSLSP light: DIVMTQSPLSLPVTPGEPASISCQASESLVHSNRNTYLHWYLQKPGQSPQLLIYKVSNRFSGVPDRFSGSGSGTDFTLKISRVEAEDVGVYYCSQNTHVPPTFGQGTKVEIERTVAAPSVFIFPPSDEQLKSGTASVVCLLNNFYPREAKVQWKVDNALQSGNSQESVTEQDSKDSTYSLSSTLTLSKADYEKHKVYACEVTHQGLSSPVTKSFNRGEC",,,,1.2,3.4
"GpH7-TA40/GpH7-B78/GpL16-k0 (antibody, human IgG1, kappa, Heterodimerized anti-glypican-3 IgG1 antibody; K334G is in the same H chain as L234Y/G236W/S298A; also called TA40/B78) heavy 1: QVQLVQSGAEVKKPGASVTVSCKASGYTFTDYEMHWIRQPPGEGLEWIGAIDPKTGDTAYSESFQDRVTLTADKSTSTAYMELSSLTSEDTAVYYCTRFYSYTYWGQGTLVTVSSASTKGPSVFPLAPSSKSTSGGTAALGCLVKDYFPEPVTVSWNSGALTSGVHTFPAVLQSSGLYSLSSVVTVPSSSLGTQTYICNVNHKPSNTKVDKKVEPKSCDKTHTCPPCPAPEYLWGPSVFLFPPKPKDTLMISRTPEVTCVVVDVSHEDPEVKFNWYVDGVEVHNAKTKPREEQYNATYRVVSVLTVLHQDWLNGKEYKCKVSNKALPAPIEGTISKAKGQPREPQVYTLPPSRKELTKNQVSLTCLVKGFYPSDIAVEWESNGQPENNYKTTPPVLDSDGSFFLYSKLTVDKSRWQQGNVFSCSVMHEALHNRYTQKSLSLSP heavy 2: QVQLVQSGAEVKKPGASVTVSCKASGYTFTDYEMHWIRQPPGEGLEWIGAIDPKTGDTAYSESFQDRVTLTADKSTSTAYMELSSLTSEDTAVYYCTRFYSYTYWGQGTLVTVSSASTKGPSVFPLAPSSKSTSGGTAALGCLVKDYFPEPVTVSWNSGALTSGVHTFPAVLQSSGLYSLSSVVTVPSSSLGTQTYICNVNHKPSNTKVDKKVEPKSCDKTHTCPPCPAPELLGGPDVFLFPPKPKDTLMISRTPEVTCVVVDVSHEDPEVKFNWYVDGVEVHNAKTKPREEQYNSTYRVVSVLTVLHQDWLNGKEYKCKVSNKALPLPEEKTISKAKGQPREPQVYTLPPSRDELTKNQVSLTCLVKGFYPSDIAVEWESNGQPENNYKTTPPVLDSDGSFFLYSKLTVDKSRWQQGNVFSCSVMHEALHNHYTQESLSLSP light: DIVMTQSPLSLPVTPGEPASISCQASESLVHSNRNTYLHWYLQKPGQSPQLLIYKVSNRFSGVPDRFSGSGSGTDFTLKISRVEAEDVGVYYCSQNTHVPPTFGQGTKVEIERTVAAPSVFIFPPSDEQLKSGTASVVCLLNNFYPREAKVQWKVDNALQSGNSQESVTEQDSKDSTYSLSSTLTLSKADYEKHKVYACEVTHQGLSSPVTKSFNRGEC",,,,0.5,7.5

# The next lines start with the values.
fold enhancement of binding against the variant before introduction of I332E and Y235N (FcγRIIIa F) [fold],fold enhancement of binding against the variant before introduction of I332E and Y235N (FcγRIIIa V) [fold],koff (FcγRIa) [s⁻¹],KD ratio (FcγRIIIa [1]),Kd (FcγRIIIa [2]) [nM],Binder
2,8,< 5e-05,,,"H240-Kn192/H240-Hl204/L73-k0 (antibody, human IgG1, kappa, Y235N/E294K in H240-Kn120; G236T/I332E in H240-Hl068) heavy 1: QDQLVQSGAEVKKPGASVKVSCKASGFNIKDTYIQWVRQAPGQGLEWMGRIDPLRKQTKYREKFEGRVTITADTSTNTAYMELSSLRSEDTAVYYCVRSGREFDYWGQGTLVTVSSASTKGPSVFPLAPSSKSTSGGTAALGCLVKDYFPEPVTVSWNSGALTSGVHTFPAVLQSSGLYSLSSVVTVPSSSLGTQTYICNVNHKPSNTKVDKKVEPKSCDKTHTCPPCPAPEYNWGPMVFLFPPKPKDTLMISRTPEVTCVVVDVSDEDPEVKFNWYVDGVEVHNAKTKPREKQYNATYRVVSVLTVLHQDWLNGKEYKCKVSNKDLPAPIEKTISKAKGQPREPQVCTLPPSRDELTKNQVSLWCLVKGFYPSDIAVEWESNGQPENNYKTTPPVLDSDGSFFLYSKLTVDKSRWQQGNVFSCSVMHEALHNHYTQKSLSLSP heavy 2: QDQLVQSGAEVKKPGASVKVSCKASGFNIKDTYIQWVRQAPGQGLEWMGRIDPLRKQTKYREKFEGRVTITADTSTNTAYMELSSLRSEDTAVYYCVRSGREFDYWGQGTLVTVSSASTKGPSVFPLAPSSKSTSGGTAALGCLVKDYFPEPVTVSWNSGALTSGVHTFPAVLQSSGLYSLSSVVTVPSSSLGTQTYICNVNHKPSNTKVDKKVEPKSCDKTHTCPPCPAPELLTGPSVFLFPPKPKDTLMISRTPEVTCVVVDVSHEEPEVKFNWYVDGVEVHNAKTKPREEQYNSTYRVVSVLTVLHQDWLNGKEYKCKVSNDALPKPEEETISKAKGQPREPQVYTLPPSRCELTKNQVSLSCAVKGFYPSDIAVEWESNGQPENNYKTTPPVLDSDGSFFLVSKLTVDKSRWQQGNVFSCSVMHEALHNHYTQKSLSLSP light: DIQMTQSPSSLSASVGDRVTITCRASQDIHKYIAWYQQKPGQAPRLLIQYTSTLQPGVPSRFSGSGSGTDYTFTISSLQPEDIATYYCLQYEQLRTFGGGTKVEIKRTVAAPSVFIFPPSDEQLKSGTASVVCLLNNFYPREAKVQWKVDNALQSGNSQESVTEQDSKDSTYSLSSTLTLSKADYEKHKVYACEVTHQGLSSPVTKSFNRGEC"
2,8,< 5e-05,,,"H240-Kn193/H240-Hl204/L73-k0 (antibody, human IgG1, kappa, Y235N/E294R in H240-Kn120; G236T/I332E in H240-Hl068) heavy 1: QDQLVQSGAEVKKPGASVKVSCKASGFNIKDTYIQWVRQAPGQGLEWMGRIDPLRKQTKYREKFEGRVTITADTSTNTAYMELSSLRSEDTAVYYCVRSGREFDYWGQGTLVTVSSASTKGPSVFPLAPSSKSTSGGTAALGCLVKDYFPEPVTVSWNSGALTSGVHTFPAVLQSSGLYSLSSVVTVPSSSLGTQTYICNVNHKPSNTKVDKKVEPKSCDKTHTCPPCPAPEYNWGPMVFLFPPKPKDTLMISRTPEVTCVVVDVSDEDPEVKFNWYVDGVEVHNAKTKPRERQYNATYRVVSVLTVLHQDWLNGKEYKCKVSNKDLPAPIEKTISKAKGQPREPQVCTLPPSRDELTKNQVSLWCLVKGFYPSDIAVEWESNGQPENNYKTTPPVLDSDGSFFLYSKLTVDKSRWQQGNVFSCSVMHEALHNHYTQKSLSLSP heavy 2: QDQLVQSGAEVKKPGASVKVSCKASGFNIKDTYIQWVRQAPGQGLEWMGRIDPLRKQTKYREKFEGRVTITADTSTNTAYMELSSLRSEDTAVYYCVRSGREFDYWGQGTLVTVSSASTKGPSVFPLAPSSKSTSGGTAALGCLVKDYFPEPVTVSWNSGALTSGVHTFPAVLQSSGLYSLSSVVTVPSSSLGTQTYICNVNHKPSNTKVDKKVEPKSCDKTHTCPPCPAPELLTGPSVFLFPPKPKDTLMISRTPEVTCVVVDVSHEEPEVKFNWYVDGVEVHNAKTKPREEQYNSTYRVVSVLTVLHQDWLNGKEYKCKVSNDALPKPEEETISKAKGQPREPQVYTLPPSRCELTKNQVSLSCAVKGFYPSDIAVEWESNGQPENNYKTTPPVLDSDGSFFLVSKLTVDKSRWQQGNVFSCSVMHEALHNHYTQKSLSLSP light: DIQMTQSPSSLSASVGDRVTITCRASQDIHKYIAWYQQKPGQAPRLLIQYTSTLQPGVPSRFSGSGSGTDYTFTISSLQPEDIATYYCLQYEQLRTFGGGTKVEIKRTVAAPSVFIFPPSDEQLKSGTASVVCLLNNFYPREAKVQWKVDNALQSGNSQESVTEQDSKDSTYSLSSTLTLSKADYEKHKVYACEVTHQGLSSPVTKSFNRGEC"
